Experimental data as given in US20210095028A1 (NANJING LEGEND BIOTECH, published 2021).
Read-outs that look alike come from different tables or passages of the source. Blank lines part the entries; values can stand above or below the binder they belong to.

Columns and labels:
[1] = molecular target: T1, human TIGIT over-expressed on cells (human, UniProt Q495A1 22-244); experiment: cell-based or functional assay
T1 sequence: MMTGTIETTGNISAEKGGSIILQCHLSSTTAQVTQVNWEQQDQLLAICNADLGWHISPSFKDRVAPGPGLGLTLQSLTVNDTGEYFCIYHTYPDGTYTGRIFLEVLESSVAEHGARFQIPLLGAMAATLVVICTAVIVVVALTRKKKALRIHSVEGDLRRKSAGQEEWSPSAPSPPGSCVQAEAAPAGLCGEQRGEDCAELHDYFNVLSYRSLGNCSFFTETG

[2] = molecular target: T1, human TIGIT over-expressed on cells; experiment: cell-based or functional assay; remark: listed apart in the source
[3] = molecular target: T1, human TIGIT over-expressed on cells; experiment: FACS, CHO-K1 cells over-expressing human TIGIT
Description: (§1) The mixture was equilibrated for 30 minutes at room temperature and washed three times with FACS buffer (PBS containing 1% BSA). iFluor labeled goat anti-mouse IgG as the secondary antibody was added and incubated at room temperature for 45 min. Finally, the cells were washed 3 time with PBS, and the signal was read by FACS BD Calibur. Data was analyzed with PRISM™ (GraphPad Software, San Diego, Calif.) using non-linear regression and EC₅₀ values were calculated.

[4] = molecular target: T2, cynomolgus TIGIT over-expressed on CHO-K1 cells (cynomolgus, UniProt A0A7N9I9V4 89-312); experiment: FACS, CHO-K1 cells over-expressing cynomolgus TIGIT
T2 construct: whole, on cells; also called CHO-K1/cynomolgus TIGIT cells
Description: as §1

[5] = molecular target: T3, Human TIGIT protein with HIS tag (human, UniProt Q495A1 22-141); experiment: SPR Biacore T200; antibody Fc-captured, TIGIT-His analyte
T3 construct: A soluble analyte is probably only the extracellular part; also called human TIGIT recombinant protein; not shown: HIS tag
T3 sequence: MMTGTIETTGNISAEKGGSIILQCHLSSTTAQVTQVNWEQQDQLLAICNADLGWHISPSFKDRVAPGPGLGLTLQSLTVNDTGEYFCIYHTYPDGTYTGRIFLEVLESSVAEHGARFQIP
Description: Binding kinetics of mouse anti-human TIGIT monoclonal antibodies to human TIGIT were determined using a Surface Plasmon Resonance (SPR) biosensor, BIACORE® T200 (GE Healthcare; Little Chalfont, United Kingdom). […] Each mouse anti-human TIGIT monoclonal antibody was immobilized on the sensor chip through the Fc capture method. Human TIGIT protein with HIS tag was used as the analyte. The dissociation (kd) and association (kₐ) rate constants were obtained using the BIACORE® T200 evaluation software. The apparent equilibrium dissociation constants (KD) were calculated from the ratio of kd over kₐ.

[6] = molecular target: T1, human TIGIT over-expressed on cells; experiment: competition FACS, CHO cells expressing human TIGIT; competitor PVR recombinant protein
Description: The mixture was equilibrated for 30 minutes at room temperature, and washed three times with FACS buffer (PBS containing 1% BSA). PE/Cy5 Streptavidin secondary antibody was then added to the mixtures and incubated for 15 minutes at room temperature. Subsequently, the cells were washed with FACS buffer and analyzed by flow cytometry. Data was analyzed with PRISM™ (GraphPad Software, San Diego, Calif.) using non-linear regression, and IC₅₀ values were calculated (FIGS. 4A-4B and Table 6).

[7] = molecular target: T1, human TIGIT over-expressed on cells; experiment: cell-based or functional assay; remark: listed apart in the source
[8] = molecular target: T1, human TIGIT over-expressed on cells; experiment: FACS, CHO-K1 cells over-expressing human TIGIT; remark: listed apart in the source
Description: as §1, with “Binding affinities of the chimeric anti-human TIGIT monoclonal antibodies and the humanized anti-human TIGIT monoclonal antibodies to human or cynomolgus TIGIT over-expressed on CHO-K1 cells were determined using a fluorescence-activated cell sorting (FACS)-based assay. […] The” for “The”

[9] = molecular target: T2, cynomolgus TIGIT over-expressed on …; experiment: FACS, CHO-K1 cells over-expressing cynomolgus TIGIT; remark: listed apart in the source
Description: as §1, with “Binding affinities of the chimeric anti-human TIGIT monoclonal antibodies and the humanized anti-human TIGIT monoclonal antibodies to human or cynomolgus TIGIT over-expressed on CHO-K1 cells were determined using a fluorescence-activated cell sorting (FACS)-based assay. […] The” for “The”

[10] = molecular target: T3, Human TIGIT protein with HIS tag; experiment: SPR Biacore T200; antibody Fc-captured, TIGIT-His analyte; remark: listed apart in the source
Description: Binding kinetics of the chimeric anti-human TIGIT monoclonal antibodies and the humanized anti-human TIGIT monoclonal antibodies to human TIGIT were determined using a Surface Plasmon Resonance (SPR) biosensor, BIACORE® T200 (GE Healthcare). Different concentrations of the chimeric anti-human TIGIT monoclonal antibodies or humanized anti-human TIGIT monoclonal antibodies were prepared starting at 50 nM with a 3-fold serial dilution. Each chimeric anti-human TIGIT monoclonal antibody or each humanized anti-human TIGIT monoclonal antibody was immobilized on the sensor chip through the Fc capture method. Human TIGIT protein with a HIS tag was used as the analyte. The dissociation (kd) and association (kₐ) rate constants were obtained using the BIACORE® T200 evaluation software. The apparent equilibrium dissociation constants (KD) were calculated from the ratio of kd over kₐ.

[11] = molecular target: T1, human TIGIT over-expressed on cells; experiment: competition FACS, CHO cells expressing human TIGIT; competitor PVR recombinant protein; remark: listed apart in the source
Description: (§2) To assess the competitive binding on human TIGIT between the chimeric anti-human TIGIT monoclonal antibodies or the humanized anti-human TIGIT monoclonal antibodies and PVR, the chimeric anti-human TIGIT monoclonal antibody or the humanized anti-human TIGIT monoclonal antibody samples were prepared (starting at 300 nM, ≤3-fold serial dilution with 10 concentrations). CHO cells expressing human TIGIT were dissociated from adherent culture flasks and mixed with varying concentrations of each chimeric anti-human TIGIT monoclonal antibody or the humanized anti-human TIGIT monoclonal antibody and 5 μg/ml […] fusion protein having a biotin label. The mixture was equilibrated for 30 minutes at room temperature and washed three times with FACS buffer (PBS containing 1% BSA). PE/Cy5 Streptavidin secondary antibody was then added to the mixtures and incubated for 15 minutes at room temperature. Subsequently, the cells were washed with FACS buffer and analyzed by flow cytometry. Data was analyzed with PRISM™ (GraphPad Software, San Diego, Calif.) using non-linear regression, and IC₅₀ values were calculated (FIG. 7 and Table 13).

[12] = molecular target: T1, human TIGIT over-expressed on cells; experiment: competition FACS, CHO cells expressing human TIGIT; competitor PVR recombinant protein (column headed EC50, text says IC50)
Description: as §2

T2 sequence (A0A7N9I9V4 entry or part of it): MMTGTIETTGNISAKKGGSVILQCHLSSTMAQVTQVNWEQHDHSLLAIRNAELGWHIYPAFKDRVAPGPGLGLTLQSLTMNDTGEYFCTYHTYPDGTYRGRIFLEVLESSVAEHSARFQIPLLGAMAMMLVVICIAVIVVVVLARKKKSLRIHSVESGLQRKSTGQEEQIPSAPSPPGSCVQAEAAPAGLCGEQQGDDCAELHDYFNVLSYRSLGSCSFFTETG

- luciferase signal in T cell activation, Bottom (best-fit) [1]: 5.4
- luciferase signal in T cell activation, EC50 [1]: 4.38 nM
- luciferase signal in T cell activation, Top (best-fit) [1]: 153
- IL-2 secretion in T cell activation, Bottom (best-fit) [2]: 96.2
- IL-2 secretion in T cell activation, EC50 [2]: 1.02 nM
- IL-2 secretion in T cell activation, Top (best-fit) [2]: 197
- Bottom (best-fit) [3]: 14.2
- EC50 [3]: 0.36 nM
- Top (best-fit) [3]: 92.7
- Bottom (best-fit) [4]: 7.6
- EC50 [4]: 10.2 nM
- Top (best-fit) [4]: 120
- Kd [5]: 0.72 nM
- koff [5]: 0.00093 s⁻¹
- kon [5]: 1.3e+06 M⁻¹ s⁻¹
- Bottom (best-fit) [6]: 11.8
- IC50 [6]: 0.6 nM
- Top (best-fit) [6]: 68.8
B1: 121C2F10B5 (antibody, V domains shown)
VH: EVQLVESGGDLVKPGGSLKLSCAASGFTFSTYGMSWVRQTPDKRLEWVATISSGGSYTYYPDSVKGRFTISRDNAKNTLYLQMSSLKSEDTAMYYCARQVHYFYAMDYWGQGTSVTVSS
VL: DIQMTQSPASLSVSVGETVTITCRASENIYSNLAWYQQKQGKSPQVLVYAATNLADGVPSRFSGSRSGTQYSLKINSLQSEDFGSYYCQHFWDNAYTFGGGTKLEIK
notes: Mouse monoclonal antibody; also called mouse anti-human TIGIT monoclonal antibody 121C2F10B5

- luciferase signal in T cell activation, Bottom (best-fit) [1]: 6
- luciferase signal in T cell activation, EC50 [1]: 6.42 nM
- luciferase signal in T cell activation, Top (best-fit) [1]: 147
- IL-2 secretion in T cell activation, Bottom (best-fit) [2]: 108
- IL-2 secretion in T cell activation, EC50 [2]: 3.31 nM
- IL-2 secretion in T cell activation, Top (best-fit) [2]: 189
- Bottom (best-fit) [3]: 15.5
- EC50 [3]: 0.73 nM
- Top (best-fit) [3]: 96.9
- Bottom (best-fit) [4]: 7
- EC50 [4]: 11.1 nM
- Top (best-fit) [4]: 80.6
- Kd [5]: 2.3 nM
- koff [5]: 0.00083 s⁻¹
- kon [5]: 370000 M⁻¹ s⁻¹
- Bottom (best-fit) [6]: 8.9
- IC50 [6]: 2.4 nM
- Top (best-fit) [6]: 56.9
B2: 104G12E12G2 (antibody, V domains shown)
VH: EVQLQQSGPELVKPGASVKISCKASGYSFTGSYIHWVKQNHVKTLEWIGRINPHNGPTSYNQNFKGKASLTVDLSSSTAYMEVHSLTSEDSAVYYCVRYDGYYGGALDYWGQGTSVTVSS
VL: DIQMTQSPSSLSASLGERVSLTCRASQEISGYLSWLQQKPDGTIKRLIYAASTLDSGVPKRFSGSRSGSDYSLTISSLESEDFADYYCLQYASYPYTFGGGTKLEIK
notes: Mouse monoclonal antibody; also called mouse anti-human TIGIT monoclonal antibody 104G12E12G2

- luciferase signal in T cell activation, Bottom (best-fit) [1]: 5.7
- luciferase signal in T cell activation, EC50 [1]: 1.64 nM
- luciferase signal in T cell activation, Top (best-fit) [1]: 124
- IL-2 secretion in T cell activation, Bottom (best-fit) [2]: 111
- IL-2 secretion in T cell activation, EC50 [2]: 0.82 nM
- IL-2 secretion in T cell activation, Top (best-fit) [2]: 283
- Bottom (best-fit) [3]: 15.3
- EC50 [3]: 0.61 nM
- Top (best-fit) [3]: 113
- Bottom (best-fit) [4]: 15.3
- EC50 [4]: 1.58 nM
- Top (best-fit) [4]: 455
- Kd [5]: 0.23 nM
- koff [5]: 0.00015 s⁻¹
- kon [5]: 650000 M⁻¹ s⁻¹
- Bottom (best-fit) [6]: 9.5
- IC50 [6]: 1 nM
- Top (best-fit) [6]: 67.1
B3: 64G1E9B4 (antibody, V domains shown)
VH: EVQLQQSGPELVKPGASVKISCKTSGYTFTEHVIHWVKQSHGKSLEWIGGFNPNHDGTIYNQIFRGKATLTVDKSSSTAYMELRSLTSEDSAVYFCTRAAKLLFAMDYWGQGTSVTVSS
VL: DIVMTQSHKFMSTSIGDRVSITCKASQHVSNAVVWYQQKPGQSPKLLIYSPSYRFTGVPDRFTGSGSGTDFTFTISSVQAEDLAVYYCQQHYSTPWTFGGGTKLEIK
notes: Mouse monoclonal antibody; also called mouse anti-human TIGIT monoclonal antibody 64G1E9B4

- luciferase signal in T cell activation, Bottom (best-fit) [1]: 3.4
- luciferase signal in T cell activation, EC50 [1]: 3.9 nM
- luciferase signal in T cell activation, Top (best-fit) [1]: 141
- IL-2 secretion in T cell activation, Bottom (best-fit) [2]: 106
- IL-2 secretion in T cell activation, EC50 [2]: 3.36 nM
- IL-2 secretion in T cell activation, Top (best-fit) [2]: 274
- Bottom (best-fit) [3]: 7.99
- EC50 [3]: 0.8 nM
- Top (best-fit) [3]: 97
- Bottom (best-fit) [4]: 17.7
- EC50 [4]: 1.16 nM
- Top (best-fit) [4]: 348
- Kd [5]: 0.57 nM
- koff [5]: 0.00041 s⁻¹
- kon [5]: 710000 M⁻¹ s⁻¹
- Bottom (best-fit) [6]: 10.3
- IC50 [6]: 2 nM
- Top (best-fit) [6]: 65.5
B4: 92E9D4B4 (antibody, V domains shown)
VH: EVMLVESGGGLVKPGGSLKLSCAASGFTFSFYTMSWVRQTPEKRLEWVATISGGGGDTYYPDNVKGRFTISRDNAKNNLYLQMSSLRSEDTALYYCARSLPVDFWGQGTTLTVSS
VL: QIVLTQSPAIMSASLGERVTMTCTASSSVSSTYLHWYQQKPGSSPKFWIYSTSNMASGVPARFSGSGSGTSYSLTISSMEAEDAATYYCHYYHRSPYTFGGGTKLEIK
notes: Mouse monoclonal antibody; also called mouse anti-human TIGIT monoclonal antibody 92E9D4B4

- IL-2 secretion in T cell activation, Bottom (best-fit) [7]: 182
- IL-2 secretion in T cell activation, EC50 [7]: 1.27 nM
- IL-2 secretion in T cell activation, Top (best-fit) [7]: 508
- Bottom (best-fit) [8]: 3190
- EC50 [8]: 0.89 nM
- Top (best-fit) [8]: 22900
- Bottom (best-fit) [9]: 3010
- EC50 [9]: 1.65 nM
- Top (best-fit) [9]: 24700
- Kd [10]: 0.15 nM
- koff [10]: 8.8e-05 s⁻¹
- kon [10]: 590000 M⁻¹ s⁻¹
- Bottom (best-fit) [11]: 139
- Top (best-fit) [11]: 820
- IC50 [12]: 0.79 nM
B5: 64G1E9B4VH1_VL1.M1 (antibody, human IgG1, V domains shown)
VH: EVQLVQSGAEVKKPGSSVKVSCKASGYTFTEHVIHWVRQAPGQGLEWMGGFNPNHDGTIYNQIFRGRVTITADKSTSTAYMELSSLRSEDTAVYYCARAAKLLFAMDYWGQGTTVTVSS
VL: DIQMTQSPSSLSASVGDRVTITCRASQHVSNAVVWYQQKPGKAPKLLIYSPSYRFTGVPSRFSGSGSGTDFTLTISSLQPEDFATYYCQQHYSTPWTFGGGTKVEIK
notes: Humanized antibody, variable domains fused with the constant region of human IgG1; also called 64G1VH1_VL1.M1
